According to PMC10136361, “Inhibition Analysis and High-Resolution Crystal Structure of Mus musculus Glutathione Transferase P1-1” (Biomolecules, 2023):

Molecular target: the molecule itself
Test: crystal structure; co-crystallised with 2.5 mM Nb-GSH, hanging drop vapor diffusion, 0.1 M Tris-HCl pH 8.0, PEG 6000 20% (w/v), 0.2 M calcium chloride; data to 1.28 Å at 100 K; two molecules in the asymmetric unit

B1: Mus musculus glutathione transferase P1-1 (enzyme, UniProt P19157 1-210, looked up)
chain: MPPYTIVYFPVRGRCEAMRMLLADQGQSWKEEVVTIDTWMQGLLKPTCLYGQLPKFEDGDLTLYQSNAILRHLGRSLGLYGKNQREAAQMDMVNDGVEDLRGKYVTLIYTNYENGKNDYVKALPGHLKPFETLLSQNQGGKAFIVGDQISFADYNLLDLLLIHQVLAPGCLDNFPLLSAYVARLSARPKIKAFLSSPEHVNRPINGNGKQ
notes: Glutathione S-transferase P1, Mus musculus, cloned from cDNA by PCR after GenBank BC061109.1; also called MmGSTP1-1; GSTP1-1 from Mus musculus
B1: binds.
